Assay results taken from US20040152634A1, “Chemokine antagonists and uses thereof” (priority 2002, published 2004).
Where two headings read alike, the source gives them in different places.

Experiments:
[1] = biological target: T1, extracellular domain of the prolactin receptor (hPRLbp) (Homo sapiens, UniProt P16471); settings: cited from earlier work; for Kd: read-out: Kd, binding to hPRLbp
T1 construct: with the extracellular domain of the prolactin receptor (hPRLbp)
T1 sequence (P16471 25-234 limits assumed): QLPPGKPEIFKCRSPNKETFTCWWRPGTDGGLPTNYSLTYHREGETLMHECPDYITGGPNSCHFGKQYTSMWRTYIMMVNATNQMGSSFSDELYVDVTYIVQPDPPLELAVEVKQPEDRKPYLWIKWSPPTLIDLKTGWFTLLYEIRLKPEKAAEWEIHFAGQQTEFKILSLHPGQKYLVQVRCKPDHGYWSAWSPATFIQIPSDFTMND

[2] = biological target: IL-8 (CXCL8, interleukin 8) (UniProt P10145); test: inhibition of 125I-IL-8 binding to neutrophil membranes, in the presence of 100 uM ZnCl2
Chain of IL-8 (CXCL8, interleukin 8) (P10145 28-99 limits assumed): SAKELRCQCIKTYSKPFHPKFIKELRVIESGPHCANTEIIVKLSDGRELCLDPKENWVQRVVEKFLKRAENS

[3] = biological target: IL-8 (CXCL8, interleukin 8) (UniProt P10145); test: inhibition of 125I-IL-8 binding to neutrophil membranes, (II)
[4] = biological target: IL-8 (CXCL8, interleukin 8) (UniProt P10145); test: inhibition of 125I-IL-8 binding to neutrophil membranes; with 100 uM ZnCl2 against without Zn(II)

Ki [2] [nM] | Ki [3] [nM] | fold better inhibition with Zn(II) than in the absence of Zn(II) [4] [fold] | Substance | Kd ([1]; in the absence of Zn(II)) [nM] | Kd ([1]; in the presence of Zn(II)) [nM] | increase of binding affinity with Zn(II) ([1]; presence vs absence of Zn(II))
 |  |  | hGH: human growth hormone, binds the extracellular domain of the prolactin receptor (hPRLbp) | 270 | 0.033 | about 8,000 fold
1120 | 141000 | 125 | synthetic N-terminal peptide CXCR1 (21-residues in length in which Met 12 was replaced by a His to create a Zn(II) binding site) |  |  | 
